The record followed here is the supplement of paper PMC9112550, “Optimization of the antimicrobial peptide Bac7 by deep mutational scanning” (BMC Biology, 2022).

The subject of the series is Escherichia coli TOP10. The series is described as follows: shrunken log2 fold change of peptide-encoding DNA abundance (4.5 h post-induction vs induction); higher = less antimicrobial activity (less host growth inhibition). The note with it: time post-induction: 4.5 h; library: site-saturation at positions 5, 18, 19, 20.
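Also: peptides expressed intracellularly from a pBAD plasmid library in pooled LB shake-flask culture, induced with 0.3% L-arabinose, DNA abundance read by NGS, three biological replicates, DESeq2 with apeglm shrinkage.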

As for RRIRYRPPRLPRPRPRPQFWPRP, the “shrunken log2 fold change” value is 0.313.

Consider RRIRDRPPRLPRPRPRPHERPRP, for which the “shrunken log2 fold change” value is 0.0603.

With RRIRDRPPRLPRPRPRPTPNPRP, the “shrunken log2 fold change” value amounted to 0.272.

Take RRIRMRPPRLPRPRPRPSRTPRP: the “shrunken log2 fold change” value stood at 0.715. With RRIRFRPPRLPRPRPRPDVWPRP, the “shrunken log2 fold change” value turned out to be 0.128. Take RRIRHRPPRLPRPRPRPNNHPRP: the “shrunken log2 fold change” value was -0.915. To RRIRSRPPRLPRPRPRPLKDPRP belongs -0.484.

Take RRIRFRPPRLPRPRPRPLFHPRP: the “shrunken log2 fold change” value is -0.632. As to RRIRVRPPRLPRPRPRPYHMPRP, the “shrunken log2 fold change” value was -0.305. As for RRIRCRPPRLPRPRPRPGQGPRP, the “shrunken log2 fold change” value worked out at 0.43. For RRIRLRPPRLPRPRPRPIAYPRP, the “shrunken log2 fold change” value is -0.0152. On to RRIRQRPPRLPRPRPRPDGAPRP, for which the “shrunken log2 fold change” value worked out at 0.0271. The value for RRIRCRPPRLPRPRPRPGNFPRP was -0.0984. The value for RRIRPRPPRLPRPRPRPRTGPRP was 1.03; that for RRIRVRPPRLPRPRPRPVAVPRP was -0.05; that for RRIRMRPPRLPRPRPRPNLFPRP was 0.124. Regarding RRIRCRPPRLPRPRPRPCIPPRP, the “shrunken log2 fold change” value was -0.01. The value for RRIRCRPPRLPRPRPRPMNAPRP was -0.422. Consider RRIRIRPPRLPRPRPRPGLLPRP, for which the “shrunken log2 fold change” value is -0.0591. With RRIRSRPPRLPRPRPRPFYQPRP, the “shrunken log2 fold change” value was -0.308.

Consider RRIRGRPPRLPRPRPRPSQDPRP, for which the “shrunken log2 fold change” value came out at 0.296. For the sequence RRIRNRPPRLPRPRPRPSAHPRP, the “shrunken log2 fold change” value is -0.0549. Regarding RRIRVRPPRLPRPRPRPDVDPRP, the “shrunken log2 fold change” value is -0.367. Consider RRIRPRPPRLPRPRPRPVYGPRP, for which the “shrunken log2 fold change” value was -0.486. The value for RRIRYRPPRLPRPRPRPGMNPRP was -0.227. As to RRIRMRPPRLPRPRPRPFEDPRP, the “shrunken log2 fold change” value worked out at 0.2. The value for RRIRLRPPRLPRPRPRPCTCPRP was -0.238; that for RRIRIRPPRLPRPRPRPCIEPRP was -0.112. For RRIRSRPPRLPRPRPRPIMPPRP, the “shrunken log2 fold change” value is -0.121. As to RRIRQRPPRLPRPRPRPPYLPRP, the “shrunken log2 fold change” value was -0.289. On to RRIRQRPPRLPRPRPRPSQMPRP, for which the “shrunken log2 fold change” value was -0.0442. Take RRIRARPPRLPRPRPRPWAEPRP: the “shrunken log2 fold change” value was found to be 0.264. To RRIRSRPPRLPRPRPRPVLNPRP belongs -0.169; to RRIRWRPPRLPRPRPRPILIPRP, -0.037. To RRIRFRPPRLPRPRPRPFVHPRP belongs -0.728; to RRIRCRPPRLPRPRPRPQAQPRP, 0.315. RRIRWRPPRLPRPRPRPNEGPRP: the “shrunken log2 fold change” value was -0.0387. Take RRIRWRPPRLPRPRPRPYPVPRP: the “shrunken log2 fold change” value was found to be 3.67. As to RRIRDRPPRLPRPRPRPFTQPRP, the “shrunken log2 fold change” value is -0.147.

As for RRIRWRPPRLPRPRPRPAWNPRP, the “shrunken log2 fold change” value is 0.155. As for RRIRVRPPRLPRPRPRPLVLPRP, the “shrunken log2 fold change” value was -0.122. With RRIRERPPRLPRPRPRPPKHPRP, the “shrunken log2 fold change” value was -0.0654. With RRIRARPPRLPRPRPRPTRFPRP, the “shrunken log2 fold change” value stood at 0.737. With RRIRIRPPRLPRPRPRPNVIPRP, the “shrunken log2 fold change” value was -0.82. RRIRTRPPRLPRPRPRPQHVPRP: the “shrunken log2 fold change” value is -0.0575. For RRIRPRPPRLPRPRPRPRFWPRP, the “shrunken log2 fold change” value was determined as 0.579. Turning to RRIRHRPPRLPRPRPRPWLYPRP, the “shrunken log2 fold change” value was -0.217. Regarding RRIRLRPPRLPRPRPRPQYFPRP, the “shrunken log2 fold change” value is -0.158. Regarding RRIRYRPPRLPRPRPRPWEEPRP, the “shrunken log2 fold change” value was -0.0122. In the case of RRIRNRPPRLPRPRPRPSIKPRP, the “shrunken log2 fold change” value is -0.0594. With RRIRCRPPRLPRPRPRPTIWPRP, the “shrunken log2 fold change” value is 0.105. Regarding RRIRDRPPRLPRPRPRPATYPRP, the “shrunken log2 fold change” value is -0.141.

Consider RRIRIRPPRLPRPRPRPQYIPRP, for which the “shrunken log2 fold change” value was -0.181. The value for RRIRARPPRLPRPRPRPDDDPRP was 0.257; that for RRIRARPPRLPRPRPRPAYEPRP was 0.0749; that for RRIRSRPPRLPRPRPRPFKNPRP was -0.378. Consider RRIRDRPPRLPRPRPRPTGFPRP, for which the “shrunken log2 fold change” value is 0.0286. For RRIRVRPPRLPRPRPRPFAFPRP, the “shrunken log2 fold change” value was -0.38.

For the sequence RRIRLRPPRLPRPRPRPTLFPRP, the “shrunken log2 fold change” value was 0.0945. To RRIRVRPPRLPRPRPRPGQNPRP belongs -0.104; to RRIRNRPPRLPRPRPRPKIWPRP, 0.0854. With RRIRPRPPRLPRPRPRPNYDPRP, the “shrunken log2 fold change” value is -0.388. For the sequence RRIRQRPPRLPRPRPRPGVIPRP, the “shrunken log2 fold change” value came out at 0.0679.

For the sequence RRIRARPPRLPRPRPRPMNGPRP, the “shrunken log2 fold change” value was -0.0023. The value for RRIRVRPPRLPRPRPRPGSRPRP was 0.177; that for RRIRTRPPRLPRPRPRPEIKPRP was -0.0117. As to RRIRRRPPRLPRPRPRPFDKPRP, the “shrunken log2 fold change” value came out at 0.0721. For the sequence RRIRARPPRLPRPRPRPAVIPRP, the “shrunken log2 fold change” value is -0.178. As for RRIRMRPPRLPRPRPRPYEHPRP, the “shrunken log2 fold change” value is -0.291. The value for RRIRDRPPRLPRPRPRPGTKPRP was -0.0282; that for RRIRKRPPRLPRPRPRPSTQPRP was 0.169. Consider RRIRIRPPRLPRPRPRPQSCPRP, for which the “shrunken log2 fold change” value is -0.0388. On to RRIRIRPPRLPRPRPRPFSIPRP, for which the “shrunken log2 fold change” value was -0.643. With RRIRHRPPRLPRPRPRPKNTPRP, the “shrunken log2 fold change” value was -0.497. As to RRIRKRPPRLPRPRPRPNFKPRP, the “shrunken log2 fold change” value was determined as 0.166.

As for RRIRLRPPRLPRPRPRPQRFPRP, the “shrunken log2 fold change” value is -0.142.

Turning to RRIRTRPPRLPRPRPRPLRPPRP, the “shrunken log2 fold change” value amounted to 0.864. Consider RRIRYRPPRLPRPRPRPNWDPRP, for which the “shrunken log2 fold change” value was -0.863. As to RRIRDRPPRLPRPRPRPNEPPRP, the “shrunken log2 fold change” value is -0.0233. As for RRIRTRPPRLPRPRPRPNRVPRP, the “shrunken log2 fold change” value was -0.0472. On to RRIRFRPPRLPRPRPRPSCDPRP, for which the “shrunken log2 fold change” value was -0.314. Turning to RRIRARPPRLPRPRPRPDACPRP, the “shrunken log2 fold change” value amounted to 0.955. To RRIRARPPRLPRPRPRPFAEPRP belongs 0.762. For the sequence RRIRGRPPRLPRPRPRPFQLPRP, the “shrunken log2 fold change” value is 0.0144. Consider RRIRCRPPRLPRPRPRPTEMPRP, for which the “shrunken log2 fold change” value is -0.102. As to RRIRNRPPRLPRPRPRPSYFPRP, the “shrunken log2 fold change” value is -0.699. In the case of RRIRPRPPRLPRPRPRPVRYPRP, the “shrunken log2 fold change” value amounted to 0.346. To RRIRWRPPRLPRPRPRPEPAPRP belongs 1.18; to RRIRMRPPRLPRPRPRPFPLPRP, -0.0414; to RRIRSRPPRLPRPRPRPLMHPRP, -0.142. In the case of RRIRKRPPRLPRPRPRPKNCPRP, the “shrunken log2 fold change” value is 0.0646. For RRIRGRPPRLPRPRPRPISRPRP, the “shrunken log2 fold change” value came to 0.0494.

In the case of RRIRDRPPRLPRPRPRPIDLPRP, the “shrunken log2 fold change” value is -0.0817.

Consider RRIRGRPPRLPRPRPRPTKKPRP, for which the “shrunken log2 fold change” value is 0.689.

For RRIRRRPPRLPRPRPRPFFAPRP, the “shrunken log2 fold change” value amounted to 0.98. To RRIRVRPPRLPRPRPRPYWRPRP belongs -0.323; to RRIRDRPPRLPRPRPRPFVYPRP, -0.344. Take RRIRRRPPRLPRPRPRPGTLPRP: the “shrunken log2 fold change” value was -0.0513.

For the sequence RRIRIRPPRLPRPRPRPENHPRP, the “shrunken log2 fold change” value was -0.143. Consider RRIRKRPPRLPRPRPRPKMSPRP, for which the “shrunken log2 fold change” value was -0.315. The value for RRIRLRPPRLPRPRPRPLFIPRP was -0.539. RRIRDRPPRLPRPRPRPSSMPRP: the “shrunken log2 fold change” value is -0.292. Regarding RRIRARPPRLPRPRPRPQHHPRP, the “shrunken log2 fold change” value is -0.298. Turning to RRIRNRPPRLPRPRPRPIPYPRP, the “shrunken log2 fold change” value is -0.0122. To RRIRCRPPRLPRPRPRPLSEPRP belongs -0.219; to RRIRTRPPRLPRPRPRPMWPPRP, -0.0463. With RRIRLRPPRLPRPRPRPVDYPRP, the “shrunken log2 fold change” value was -0.434. The value for RRIRYRPPRLPRPRPRPRRIPRP was 0.014; that for RRIRDRPPRLPRPRPRPIVVPRP was 0.218. RRIRSRPPRLPRPRPRPKSMPRP: the “shrunken log2 fold change” value was -0.269.

As for RRIRPRPPRLPRPRPRPAGIPRP, the “shrunken log2 fold change” value is -0.0533. The value for RRIRTRPPRLPRPRPRPNQMPRP was -0.334; that for RRIRKRPPRLPRPRPRPFCQPRP was 0.212.

As to RRIRGRPPRLPRPRPRPDWFPRP, the “shrunken log2 fold change” value amounted to 0.448. To RRIRGRPPRLPRPRPRPGIGPRP belongs 0.942; to RRIRMRPPRLPRPRPRPYHKPRP, -0.0503. With RRIRNRPPRLPRPRPRPHNCPRP, the “shrunken log2 fold change” value was -0.0167. In the case of RRIRGRPPRLPRPRPRPAWVPRP, the “shrunken log2 fold change” value turned out to be 0.456. Turning to RRIRERPPRLPRPRPRPPPSPRP, the “shrunken log2 fold change” value was 0.415. As for RRIRVRPPRLPRPRPRPYLSPRP, the “shrunken log2 fold change” value is -0.491.

For RRIRYRPPRLPRPRPRPMQNPRP, the “shrunken log2 fold change” value is -0.488. For the sequence RRIRVRPPRLPRPRPRPYSLPRP, the “shrunken log2 fold change” value was -0.533.

As for RRIRERPPRLPRPRPRPLSGPRP, the “shrunken log2 fold change” value is -0.135. Regarding RRIRSRPPRLPRPRPRPCKCPRP, the “shrunken log2 fold change” value was -0.359. To RRIRTRPPRLPRPRPRPATYPRP belongs -0.169.
